B1: Ad5 penton base (natural protein)
chain: MRRAAMYEEGPPPSYESVVSAAPVAAALGSPFDAPLDPPFVPPRYLRPTGGRNSIRYSELAPLFDTTRVYLVDNKSTDVASLNYQNDHSNFLTTVIQNNDYSPGEASTQTINLDDRSHWGGDLKTILHTNMPNVNEFMFTNKFKARVMVSRLPTKDNQVELKYEWVEFTLPEGNYSETMTIDLMNNAIVEHYLKVGRQNGVLESDIGVKFDTRNFRLGFDPVTGLVMPGVYTNEAFHPDIILLPGCGVDFTHSRLSNLLGIRKRQPFQEGFRITYDDLEGGNIPALLDVDAYQASLKDDTEQGGGGAGGSNSSGSGAEENSNAAAAAMQPVEDMNDHAIRGDTFATRAEEKRAEAEAAAEAAAPAAQPEVEKPQKKPVIKPLTEDSKKRSYNLISNDSTFTQYRSWYLAYNYGDPQTGIRSWTLLCTPDVTCGSEQVYWSLPDMMQDPVTFRSTRQISNFPVVGAELLPVHSKSFYNDQAVYSQLIRQFTSLTHVFNRFPENQILARPPAPTITTVSENVPALTDHGTLPLRNSIGGVQRVTITDARRRTCPYVYKALGIVSPRVLSSRTF
notes: source: in Ad5 (E1/E3 deleted) virions, bought: ViraQuest
B2: Ad5 fiber protein (natural protein)
chain: MKRARPSEDTFNPVYPYDTETGPPTVPFLTPPFVSPNGFQESPPGVLSLRLSEPLVTSNGMLALKMGNGLSLDEAGNLTSQNVTTVSPPLKKTKSNINLEISAPLTVTSEALTVAAAAPLMVAGNTLTMQSQAPLTVHDSKLSIATQGPLTVSEGKLALQTSGPLTTTDSSTLTITASPPLTTATGSLGIDLKEPIYTQNGKLGLKYGAPLHVTDDLNTLTVATGPGVTINNTSLQTKVTGALGFDSQGNMQLNVAGGLRIDSQNRRLILDVSYPFDAQNQLNLRLGQGPLFINSAHNLDINYNKGLYLFTASNNSKKLEVNLSTAKGLMFDATAIAINAGDGLEFGSPNAPNTNPLKTKIGHGLEFDSNKAMVPKLGTGLSFDSTGAITVGNKNNDKLTLWTTPAPSPNCRLNAEKDAKLTLVLTKCGSQILATVSVLAVKGSLAPISGTVQSAHLIIRFDENGVLLNNSFLDPEYWNFRNGDLTEGTAYTNAVGFMPNLSAYPKSHGKTAKSNIVSQVYLNGDKTKPVTLTITLNGTQETGDTTPSAYSMSFSWDWSGHNYINEIFATSSYTFSYIAQE
notes: as for B1

Target: T1, Ad5 hexon, in the virion (human adenovirus 5, UniProt P04133 1-952)
T1 construct: source: in Ad5 (E1/E3 deleted) virions, bought: ViraQuest
Assay: co-IP
Settings: both partners purified

T1 sequence (P04133 whole entry): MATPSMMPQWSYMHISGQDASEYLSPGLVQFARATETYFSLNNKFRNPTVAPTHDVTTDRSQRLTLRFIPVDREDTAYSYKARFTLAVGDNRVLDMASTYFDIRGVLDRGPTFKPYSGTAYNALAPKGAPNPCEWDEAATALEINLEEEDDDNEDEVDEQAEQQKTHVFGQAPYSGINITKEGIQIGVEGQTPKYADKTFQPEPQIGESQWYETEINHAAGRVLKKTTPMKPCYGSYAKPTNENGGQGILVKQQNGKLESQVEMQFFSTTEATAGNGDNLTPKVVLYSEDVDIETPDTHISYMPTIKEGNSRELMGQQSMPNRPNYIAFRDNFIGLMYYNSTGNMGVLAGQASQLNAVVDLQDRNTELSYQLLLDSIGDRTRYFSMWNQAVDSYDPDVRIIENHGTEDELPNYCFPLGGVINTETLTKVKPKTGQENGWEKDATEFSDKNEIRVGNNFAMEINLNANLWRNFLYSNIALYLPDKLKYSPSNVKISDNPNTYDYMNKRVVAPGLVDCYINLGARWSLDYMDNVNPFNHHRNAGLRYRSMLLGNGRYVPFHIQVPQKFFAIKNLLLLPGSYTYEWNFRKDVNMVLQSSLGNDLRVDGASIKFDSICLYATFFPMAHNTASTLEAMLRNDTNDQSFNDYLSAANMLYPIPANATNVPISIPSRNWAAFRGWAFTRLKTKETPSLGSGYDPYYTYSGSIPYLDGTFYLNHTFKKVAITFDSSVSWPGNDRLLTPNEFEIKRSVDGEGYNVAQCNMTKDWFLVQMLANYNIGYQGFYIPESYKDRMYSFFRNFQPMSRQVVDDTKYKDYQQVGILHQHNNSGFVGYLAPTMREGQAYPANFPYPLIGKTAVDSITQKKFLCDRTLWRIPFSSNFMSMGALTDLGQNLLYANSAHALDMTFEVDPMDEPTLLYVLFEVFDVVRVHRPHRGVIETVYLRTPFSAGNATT

Binder	binding result
B1	binds
B2	binds

From publication PMC6461443, “Complement C4 Prevents Viral Infection through Capsid Inactivation” (Cell Host & Microbe, 2019)
